Laboratory results from US20140161804A1 (AbbVie / Abbott, published 2014).

Experiments:
Human IL-17A [1] = biological target: T1, Human IL-17A (human, UniProt Q16552 20-155, limits assumed); assay: ELISA, captured DVD-Ig, biotin-human IL-17 titrated
T1 construct: Biotinylated in the ELISAs; purified recombinant protein in SPR; also called hIL17A; hIL-17
Description: The following protocol is used to characterize the binding of TNF/IL-17 DVD-Ig proteins to human TNF and IL-17 by enzyme-linked immunosorbent assay (ELISA). An ELISA plate was coated with 50 μl per well of goat anti mouse IgG-Fc at 2 μg/ml, overnight at 4° C. The plate was washed 3 times with PBS/Tween. 50 μl Mab diluted to 1 μg/ml in PBS/0.1% BSA was added to appropriate wells and incubated for 1 hour at room temperature (RT). The plate was washed 3 times with PBS/Tween. 50 μl of serial diluted biotin-human TNF or IL-17 was added to appropriate wells and incubated for 1 hour at RT. The plate was washed 3 times with PBS/Tween. 50 μl of streptavidin-HRP diluted 1:10,000 in PBS/0.1% BSA was added to appropriate wells and incubated for 1 hour at RT. The plate was washed 3 times with PBS/Tween. 50 μl of TMB was added to appropriate wells and the reaction allowed to proceed for 1 minute. The reaction was stopped with 50 μl/well 2N H₂SO₄ and the absorbance read at 450 nm.

Rhesus TNFa = biological target: T2, Rhesus TNFa (rhesus, UniProt P48094 77-233); assay: SPR (Biacore T200), DVD-Ig captured by anti-human IgG Fc, antigen in solution
T2 construct: also called Rhesus TNF-alpha
Description: (§1) The binding of antibodies to purified recombinant IL-17 and TNFα proteins were determined by surface plasmon resonance-based measurements with a Biacore® T200 instrument (GE Healthcare) using running HBS-EP (10 mM HEPES [pH 7.4], 150 mM NaCl, 3 mM EDTA, and 0.005% surfactant P20) containing 0.1 mg/ml BSA at 25° C. All chemicals were obtained from Biacore® AB (GE Healthcare) or otherwise from a different source as described in the text. Approximately 5000 RU of goat anti-human IgG (Fcγ) fragment specific polyclonal antibody (Pierce Biotechnology Inc, Rockford, Ill.) diluted in 10 mM sodium acetate (pH 4.5) was directly immobilized across a CM5 research grade biosensor chip using a standard amine coupling kit according to manufacturer's instructions and procedures at 25 ug/ml. Unreacted moieties on the biosensor surface were blocked with ethanolamine. Modified carboxymethyl dextran surface in flowcell 2, 3 and 4 were used as a reaction surface. Modified carboxymethyl dextran with goat IgG in flow cell 1 was used as the reference surface. For kinetic analysis, rate equations derived from the 1:1 Langmuir binding model were fitted simultaneously to association and dissociation phases of all six injections (using global fit analysis with local float for Rmax) with the use of Biacore T200 Evaluation software v.1.0. Purified antibodies were diluted in HEPES-buffered saline for capture across goat anti-human IgG specific reaction surfaces. Antibodies to be captured as ligand (1-5 μg/ml) were injected over reaction matrices at a flow rate of 50 μl/minute. Association phase was monitored for 5 minutes, while dissociation phase was monitored for 10-60 minutes to accommodate for slower off-rates. The association and dissociation rate constants, ka (unit M-1 s-1) and kd (unit s-1) were determined under a continuous flow rate of 50 μl/minute. Rate constants were derived by making kinetic binding measurements at six different antigen concentrations ranging from 0.78 nM to 100 nM, depending on the species of IL-17 or TNFα tested. The association ka, dissociation rate kd and equilibrium dissociation constant KD were calculated with the use of the same Biacore T200 Evaluation software v.1.0.

Human IL-17A [2] = biological target: T1, Human IL-17A; assay: as above
Description: as §1

Cynomolgus monkey IL-17A = biological target: T3, Cynomolgus monkey IL-17A (cynomolgus monkey, UniProt A0A2K5TTB0 24-155); assay: as above
T3 construct: also called Cyno IL-17AA; Cyno IL17AA
Description: as §1

T3 sequence (A0A2K5TTB0 entry or part of it): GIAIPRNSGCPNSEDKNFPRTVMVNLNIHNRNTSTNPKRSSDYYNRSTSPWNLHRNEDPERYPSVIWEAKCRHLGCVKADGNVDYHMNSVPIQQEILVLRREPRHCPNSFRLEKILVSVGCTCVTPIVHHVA
T2 sequence (P48094 77-233 limits assumed): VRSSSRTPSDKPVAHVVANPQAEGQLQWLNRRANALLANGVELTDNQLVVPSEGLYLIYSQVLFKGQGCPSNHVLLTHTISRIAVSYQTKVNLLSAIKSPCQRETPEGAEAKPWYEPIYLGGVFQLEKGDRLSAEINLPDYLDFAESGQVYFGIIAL
T1 sequence (Q16552 20-155 limits assumed): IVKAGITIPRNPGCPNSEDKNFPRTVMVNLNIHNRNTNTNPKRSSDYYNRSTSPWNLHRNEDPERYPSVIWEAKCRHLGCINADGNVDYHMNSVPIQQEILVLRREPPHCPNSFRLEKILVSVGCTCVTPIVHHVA

| Binder | EC50 (Human IL-17A [1]) | Kd (Rhesus TNFa) | koff (Rhesus TNFa) | kon (Rhesus TNFa) | Kd (Human IL-17A [2]) | koff (Human IL-17A [2]) | kon (Human IL-17A [2]) | Kd (Cynomolgus monkey IL-17A) | koff (Cynomolgus monkey IL-17A) | kon (Cynomolgus monkey IL-17A) |
| --- | --- | --- | --- | --- | --- | --- | --- | --- | --- | --- |
| h10F7-M11-hMAk199-4.4 DVD-Ig wt (bispecific antibody, human IgG1, kappa, DVD-Ig, IL-17 outer / TNF inner domain; wild-type IgG1, kappa; short linkers) heavy: not shown light: DIQMTQSPSSLSASVGDRVTITCRASSGIISYIDWFQQKPGKAPKRLIYATFDLASGVPSRFSGSGSGTDYTLTISSLQPEDFATYYCRQVGSYPETFGQGTKLEIKRTVAAPDIQMTQSPSSLSASVGDRVTITCRASQDIENYLNWYQQKPGKAPKLLIYYTSRLQSGVPSRFSGSGSGTDFTLTISSLQPEDFATYFCQQGNTQPPTFGQGTKLEIKRTVAAPSVFIFPPSDEQLKSGTASVVCLLNNFYPREAKVQWKVDNALQSGNSQESVTEQDSKDSTYSLSSTLTLSKADYEKHKVYACEVTHQGLSSPVTKSFNRGEC | 0.04 nM |  |  |  |  |  |  |  |  |  |
| hMAK199-4-h10F7-M11.4 DVD-Ig wt (bispecific antibody, human IgG1, kappa, DVD-Ig; wild-type IgG1 (CG1 Z NONA), kappa; short (SS) linkers; also called HMAK199-4-SS-H10F7-M11 DVD) heavy: not shown light: DIQMTQSPSSLSASVGDRVTITCRASQDIENYLNWYQQKPGKAPKLLIYYTSRLQSGVPSRFSGSGSGTDFTLTISSLQPEDFATYFCQQGNTQPPTFGQGTKLEIKRTVAAPDIQMTQSPSSLSASVGDRVTITCRASSGIISYIDWFQQKPGKAPKRLIYATFDLASGVPSRFSGSGSGTDYTLTISSLQPEDFATYYCRQVGSYPETFGQGTKLEIKRTVAAPSVFIFPPSDEQLKSGTASVVCLLNNFYPREAKVQWKVDNALQSGNSQESVTEQDSKDSTYSLSSTLTLSKADYEKHKVYACEVTHQGLSSPVTKSFNRGEC | > 0.5 nM |  |  |  |  |  |  |  |  |  |
| hMAK199-4-h10F7-M11.8 DVD-Ig (bispecific antibody, human IgG1, kappa, L234A L235A, DVD-Ig; IgG1 234,235 mut, kappa; GS10 linkers; also called HMAK199-4-GS10-H10F7-M11 DVD) heavy: not shown light: DIQMTQSPSSLSASVGDRVTITCRASQDIENYLNWYQQKPGKAPKLLIYYTSRLQSGVPSRFSGSGSGTDFTLTISSLQPEDFATYFCQQGNTQPPTFGQGTKLEIKRGGSGGGGSGDIQMTQSPSSLSASVGDRVTITCRASSGIISYIDWFQQKPGKAPKRLIYATFDLASGVPSRFSGSGSGTDYTLTISSLQPEDFATYYCRQVGSYPETFGQGTKLEIKRTVAAPSVFIFPPSDEQLKSGTASVVCLLNNFYPREAKVQWKVDNALQSGNSQESVTEQDSKDSTYSLSSTLTLSKADYEKHKVYACEVTHQGLSSPVTKSFNRGEC | 0.13 nM | 7.72 pM | 2.25e-05 s⁻¹ | 2.91e+06 M⁻¹ s⁻¹ | 0.0271 nM | 8.76e-06 s⁻¹ | 323000 M⁻¹ s⁻¹ | 0.00861 nM | 2.57e-06 s⁻¹ | 299000 M⁻¹ s⁻¹ |
| hMAK199-6-h10F7-M11.8 DVD-Ig (bispecific antibody, human IgG1, kappa, L234A L235A, DVD-Ig; IgG1 234,235 mut, kappa; GS10 linkers; also called HMAK199-6-GS10-H10F7-M11 DVD) heavy: not shown light: DIQMTQSPSSLSASVGDRVTITCRASQDIYDVLNWYQQKPGKAPKLLIYYASRLQSGVPSRFSGSGSGTDFTLTISSLQPEDFATYYCQQGITLPPTFGQGTKLEIKRGGSGGGGSGDIQMTQSPSSLSASVGDRVTITCRASSGIISYIDWFQQKPGKAPKRLIYATFDLASGVPSRFSGSGSGTDYTLTISSLQPEDFATYYCRQVGSYPETFGQGTKLEIKRTVAAPSVFIFPPSDEQLKSGTASVVCLLNNFYPREAKVQWKVDNALQSGNSQESVTEQDSKDSTYSLSSTLTLSKADYEKHKVYACEVTHQGLSSPVTKSFNRGEC | 0.104 nM |  |  |  |  |  |  |  |  |  |
| hMAK199-4-h10F7-M11.8 DVD-Ig wt (bispecific antibody, human IgG1, kappa, DVD-Ig; wild-type IgG1, kappa; GS10 linkers; Uncertain; also called HMAK199-4-h10F7-M11.8 HC DVD wt) heavy: not shown light: DIQMTQSPSSLSASVGDRVTITCRASQDIENYLNWYQQKPGKAPKLLIYYTSRLQSGVPSRFSGSGSGTDFTLTISSLQPEDFATYFCQQGNTQPPTFGQGTKLEIKRGGSGGGGSGDIQMTQSPSSLSASVGDRVTITCRASSGIISYIDWFQQKPGKAPKRLIYATFDLASGVPSRFSGSGSGTDYTLTISSLQPEDFATYYCRQVGSYPETFGQGTKLEIKRTVAAPSVFIFPPSDEQLKSGTASVVCLLNNFYPREAKVQWKVDNALQSGNSQESVTEQDSKDSTYSLSSTLTLSKADYEKHKVYACEVTHQGLSSPVTKSFNRGEC | 0.1 nM | 8.13 pM | 2.48e-05 s⁻¹ | 3.05e+06 M⁻¹ s⁻¹ | 0.0259 nM |  | 311000 M⁻¹ s⁻¹ | 0.0113 nM | 3.15e-06 s⁻¹ | 278000 M⁻¹ s⁻¹ |
| h10F7-M11-hMAK199-4.8 DVD-Ig wt (bispecific antibody, human IgG1, kappa, DVD-Ig, IL-17 outer / TNF inner domain; wild-type IgG1, kappa; GS10 linkers) heavy: not shown light: DIQMTQSPSSLSASVGDRVTITCRASSGIISYIDWFQQKPGKAPKRLIYATFDLASGVPSRFSGSGSGTDYTLTISSLQPEDFATYYCRQVGSYPETFGQGTKLEIKRGGSGGGGSGDIQMTQSPSSLSASVGDRVTITCRASQDIENYLNWYQQKPGKAPKLLIYYTSRLQSGVPSRFSGSGSGTDFTLTISSLQPEDFATYFCQQGNTQPPTFGQGTKLEIKRTVAAPSVFIFPPSDEQLKSGTASVVCLLNNFYPREAKVQWKVDNALQSGNSQESVTEQDSKDSTYSLSSTLTLSKADYEKHKVYACEVTHQGLSSPVTKSFNRGEC | 0.05 nM |  |  |  |  |  |  |  |  |  |
| hMAK195-24-h10F7-M11.4 DVD-Ig wt (bispecific antibody, human IgG1, kappa, DVD-Ig; wild-type IgG1 (CG1 Z NONA), kappa; short (SS) linkers ASTKGP / TVAAP; also called HMAK195-24-SS-H10F7-M11 DVD) heavy: not shown light: DIQMTQSPSSLSASVGDRVTITCKASQLVSSAVAWYQQKPGKAPKLLIYWASTLHTGVPSRFSGSGSGTDFTLTISSLQPEDFATYYCQQHYRTPFTFGQGTKLEIKRTVAAPDIQMTQSPSSLSASVGDRVTITCRASSGIISYIDWFQQKPGKAPKRLIYATFDLASGVPSRFSGSGSGTDYTLTISSLQPEDFATYYCRQVGSYPETFGQGTKLEIKRTVAAPSVFIFPPSDEQLKSGTASVVCLLNNFYPREAKVQWKVDNALQSGNSQESVTEQDSKDSTYSLSSTLTLSKADYEKHKVYACEVTHQGLSSPVTKSFNRGEC | > 0.5 nM |  |  |  |  |  |  |  |  |  |
| hMAK199-6-h10F7-M10.8 DVD-Ig (bispecific antibody, human IgG1, kappa, L234A L235A, DVD-Ig; IgG1 234,235 mut, kappa; GS10 linkers; also called HMAK199-6-GS10-H10F7-M10 DVD) heavy: not shown light: DIQMTQSPSSLSASVGDRVTITCRASQDIYDVLNWYQQKPGKAPKLLIYYASRLQSGVPSRFSGSGSGTDFTLTISSLQPEDFATYYCQQGITLPPTFGQGTKLEIKRGGSGGGGSGDIQMTQSPSSLSASVGDRVTITCSASSGSISYIDWFQQKPGKAPKRLIYATFELASGVPSRFSGSGSGTDFTLTISSLQPEDFATYYCHQLGSYPDTFGQGTKLEIKRTVAAPSVFIFPPSDEQLKSGTASVVCLLNNFYPREAKVQWKVDNALQSGNSQESVTEQDSKDSTYSLSSTLTLSKADYEKHKVYACEVTHQGLSSPVTKSFNRGEC | 0.163 nM |  |  |  |  |  |  |  |  |  |
| hMAK195-21-h10F7-M11.8 DVD-Ig wt (bispecific antibody, human IgG1, kappa, DVD-Ig; wild-type IgG1, kappa; GS10 linkers; also called HMAK195-21-h10F7-M11.8 HC DVD wt) heavy: not shown light: DIQMTQSPSSLSASVGDRVTITCRASQLVSSAVAWYQQKPGKAPKLLIYWASARHTGVPSRFSGSGSGTDFTLTISSLQPEDFATYYCQQHYKTPFTFGQGTKLEIKRGGSGGGGSGDIQMTQSPSSLSASVGDRVTITCRASSGIISYIDWFQQKPGKAPKRLIYATFDLASGVPSRFSGSGSGTDYTLTISSLQPEDFATYYCRQVGSYPETFGQGTKLEIKRTVAAPSVFIFPPSDEQLKSGTASVVCLLNNFYPREAKVQWKVDNALQSGNSQESVTEQDSKDSTYSLSSTLTLSKADYEKHKVYACEVTHQGLSSPVTKSFNRGEC | 0.11 nM | 31 pM | 0.000141 s⁻¹ | 4.56e+06 M⁻¹ s⁻¹ | 0.0386 nM | 9.26e-06 s⁻¹ | 239000 M⁻¹ s⁻¹ | 0.0109 nM | 2.21e-06 s⁻¹ | 203000 M⁻¹ s⁻¹ |
| hMAK195-24-h10F7-A11.8 DVD-Ig (bispecific antibody, human IgG1, kappa, L234A L235A, DVD-Ig; IgG1 234,235 mut, kappa; GS10 linkers; also called hMAK195-24-GS10-A11 DVD) heavy: not shown light: DIQMTQSPSSLSASVGDRVTITCKASQLVSSAVAWYQQKPGKAPKLLIYWASTLHTGVPSRFSGSGSGTDFTLTISSLQPEDFATYYCQQHYRTPFTFGQGTKLEIKRGGSGGGGSGDIQMTQSPSSLSASVGDRVTITCRASSGIISYIDWFQQKPGKAPKRLIYATFDLASGVPSRFSGSGSGTDYTLTISSLQPEDFATYYCRQVGSYPETFGQGTKLEIKRTVAAPSVFIFPPSDEQLKSGTASVVCLLNNFYPREAKVQWKVDNALQSGNSQESVTEQDSKDSTYSLSSTLTLSKADYEKHKVYACEVTHQGLSSPVTKSFNRGEC | 0.295 nM |  |  |  |  |  |  |  |  |  |
